The record followed here is paper PMC7293020.

Data set [1] concerns the target EcSSB and the SSB-IDL fusions. Put plainly: ITC. (In general: In ITC the heat of successive injections is recorded.)
For a further data set, the target named is EcSSB (Escherichia coli, UniProt P0AGE0 1-178). Nature of the data set: MST.
Sequence of EcSSB (P0AGE0 whole entry): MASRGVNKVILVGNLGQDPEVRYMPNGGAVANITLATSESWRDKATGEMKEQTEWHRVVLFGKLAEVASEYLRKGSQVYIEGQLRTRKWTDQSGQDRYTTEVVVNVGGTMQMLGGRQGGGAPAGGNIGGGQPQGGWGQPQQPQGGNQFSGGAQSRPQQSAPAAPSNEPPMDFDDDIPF

B1: Escherichia coli exonuclease I (ExoI) (enzyme)
chain: MMNDGKQQSTFLFHDYETFGTHPALDRPAQFAAIRTDSEFNVIGEPEVFYCKPADDYLPQPGAVLITGITPQEARAKGENEAAFAARIHSLFTVPKTCILGYNNVRFDDEVTRNIFYRNFYDPYAWSWQHDNSRWDLLDVMRACYALRPEGINWPENDDGLPSFRLEHLTKANGIEHSNAHDAMADVYATIAMAKLVKTRQPRLFDYLFTHRNKHKLMALIDVPQMKPLVHVSGMFGAWRGNTSWVAPLAWHPENRNAVIMVDLAGDISPLLELDSDTLRERLYTAKTDLGDNAAVPVKLVHINKCPVLAQANTLRPEDADRLGINRQHCLDNLKILRENPQVREKVVAIFAEAEPFTPSDNVDAQLYNGFFSDADRAAMKIVLETEPRNLPALDITFVDKRIEKLLFNYRARNFPGTLDYAEQQRWLEHRRQVFTPEFLQGYADELQMLVQQYADDKEKVALLKALWQYAEEIV
The molecule B1 came in with an equilibrium dissociation constant (Kd) in data set [1] of 4460 to 5780 nM. Consider TTTTTTTTTTTTTTTTTTTTTTTTTTTTTTTTTTT (ssDNA) [Cy5-dT35], for which the Kd with EcSSB was 1.23 ± 0.29 nM.

One may read the Kd as a measure of binding affinity in units of concentration. Lower therefore signals a tighter complex.
